What all share (format): cell-based, Arabidopsis thaliana
One experiment concerns tonoplast. The experiment is described as follows: Confocal localization of GFP-fusions in tpc1-2 mesophyll protoplasts. The conditions noted are these: GFP-fusion in tpc1-2 mesophyll protoplasts. On the procedure: (§1) Expression of GFP-fusion proteins for electrophysiological measurements or confocal microscopy was performed in A. thaliana tpc1-2 mesophyll protoplasts as described. Briefly, leaves were enzymatically digested to release mesophyll protoplasts, which were then transformed by the polyethylene glycol method. Protoplasts were used for electrophysiological measurements and subcellular localization of GFP fluorescence 2–4 days after transformation.
Fluorescence signals were detected and documented with a TCS SP2 confocal laser scanning microscope and the Leica Confocal Software (Leica Microsystems). A 488 nm Argon laser was used for excitation of GFP and of the auto-fluorescence of chlorophyll. GFP-signals were detected from 500 to 556 nm and chlorophyll signals from 675 to 767 nm. Venus was excited with a […] and detected in the range from 520 to 556 nm, the corresponding chlorophyll signals were detected from 637 to 736 nm. Images were processed with Photoshop (Adobe Systems).

For experiment [1], the system named is slow vacuolar (SV) currents in tpc1-2 vacuoles. In words: Whole-vacuolar patch-clamp of TPC1 variants (SV currents). The conditions noted are these: for whole-vacuolar SV currents: GFP-fusion in tpc1-2 vacuoles, 1 mM CaCl2 bath, pH 7.5; for reduction of whole-vacuolar current amplitude: relative to TPC1 wild type. On the procedure:
as §1
(§2) Patch-clamp experiments were performed on transformed vacuoles harboring two-pore channels as identified by GFP fluorescence. The pipette (luminal) solution consisted of 100 mM K-gluconate, 2 mM MgCl2, 10 mM EGTA, 10 mM MES, pH 5.5/Tris. The bath (cytosolic) solution contained 50 mM K-gluconate, 1 mM CaCl2, 1 mM MgCl2, 2 mM DTT, 10 mM HEPES, pH 7.5/Tris. Solutions were adjusted to 430 mosmol/kg by adding D-sorbitol. For analysis of the TPC1-S706 mutants two further calcium concentrations of the bath solution were used in which 1 mM CaCl2 was substituted by 0.2 mM or 0.05 mM CaCl2, respectively. Competition assays using the CTH peptide were performed on endogenous TPC1 channels in vacuoles isolated from Col-0 plants. Peptides were dissolved at 10 mM in bath solution supplemented with 1 % DMSO and 0.1 % pluronic, and diluted >600-fold for application in patch-clamp recordings. Currents were recorded either in the whole-vacuolar or cytosolic side-out configuration of the patch-clamp technique, using an EPC10 amplifier and the program PULSE (HEKA electronics, Lambrecht, Germany). Recordings and data analysis were performed as described earlier. Relative open probabilities (P o) were determined from tail currents at −53 mV, following pulses to the different test voltages. Tail currents were normalized to the maximum values at 1 mM Ca^2+, plotted as a function of the applied test voltage, and fitted according to the Boltzmann equation: PO=A/1+exp^zF/RT·(Vo-V) where V o and z are parameters for the voltage at half-maximum open probability and the apparent number of gating charges, respectively, and A describes the maximum conductance that is reached under the experimental conditions.
A general note: In patch-clamp work, channel activity is measured electrically.

The test system of experiment [2] is excised cytosolic side-out vacuolar membrane patches of tpc1-2 cells. The experiment is described as follows: Excised cytosolic side-out patch recordings of TPC1 variants. The conditions noted are these: for current remaining following reduction of Ca2+ from 1 mM to 200 µM: at 107 mV, Ca2+ reduced from 1 mM to 200 µM (n = 3–7). On the procedure:
as §1, §2

B1: TPC1ΔC29: truncated TPC1 containing residues 1–704 (protein, UniProt Q94KI8 1-704, looked up, fragment)
chain: MEDPLIGRDSLGGGGTDRVRRSEAITHGTPFQKAAALVDLAEDGIGLPVEILDQSSFGESARYYFIFTRLDLIWSLNYFALLFLNFFEQPLWCEKNPKPSCKDRDYYYLGELPYLTNAESIIYEVITLAILLVHTFFPISYEGSRIFWTSRLNLVKVACVVILFVDVLVDFLYLSPLAFDFLPFRIAPYVRVIIFILSIRELRDTLVLLSGMLGTYLNILALWMLFLLFASWIAFVMFEDTQQGLTVFTSYGATLYQMFILFTTSNNPDVWIPAYKSSRWSSVFFVLYVLIGVYFVTNLILAVVYDSFKEQLAKQVSGMDQMKRRMLEKAFGLIDSDKNGEIDKNQCIKLFEQLTNYRTLPKISKEEFGLIFDELDDTRDFKINKDEFADLCQAIALRFQKEEVPSLFEHFPQIYHSALSQQLRAFVRSPNFGYAISFILIINFIAVVVETTLDIEESSAQKPWQVAEFVFGWIYVLEMALKIYTYGFENYWREGANRFDFLVTWVIVIGETATFITPDENTFFSNGEWIRYLLLARMLRLIRLLMNVQRYRAFIATFITLIPSLMPYLGTIFCVLCIYCSIGVQVFGGLVNAGNKKLFETELAEDDYLLFNFNDYPNGMVTLFNLLVMGNWQVWMESYKDLTGTWWSITYFVSFYVITILLLLNLVVAFVLEAFFTELDLEEEEKCQGQDSQEKRNRRRSAGS
modifications: C-terminal GFP
Regarding B1, the “subcellular localization of GFP-fusion” value with tonoplast is “localized in the tonoplast”. In experiment [1], the “whole-vacuolar SV currents” value was “stayed silent”.

B2: TPC1-3LA: leucines L714, 715, 719 of TPC1 replaced by alanine (protein, UniProt Q94KI8 1-733, looked up, variant L714A L715A L719A)
Two pore calcium channel …: MEDPLIGRDSLGGGGTDRVRRSEAITHGTPFQKAAALVDLAEDGIGLPVEILDQSSFGESARYYFIFTRLDLIWSLNYFALLFLNFFEQPLWCEKNPKPSCKDRDYYYLGELPYLTNAESIIYEVITLAILLVHTFFPISYEGSRIFWTSRLNLVKVACVVILFVDVLVDFLYLSPLAFDFLPFRIAPYVRVIIFILSIRELRDTLVLLSGMLGTYLNILALWMLFLLFASWIAFVMFEDTQQGLTVFTSYGATLYQMFILFTTSNNPDVWIPAYKSSRWSSVFFVLYVLIGVYFVTNLILAVVYDSFKEQLAKQVSGMDQMKRRMLEKAFGLIDSDKNGEIDKNQCIKLFEQLTNYRTLPKISKEEFGLIFDELDDTRDFKINKDEFADLCQAIALRFQKEEVPSLFEHFPQIYHSALSQQLRAFVRSPNFGYAISFILIINFIAVVVETTLDIEESSAQKPWQVAEFVFGWIYVLEMALKIYTYGFENYWREGANRFDFLVTWVIVIGETATFITPDENTFFSNGEWIRYLLLARMLRLIRLLMNVQRYRAFIATFITLIPSLMPYLGTIFCVLCIYCSIGVQVFGGLVNAGNKKLFETELAEDDYLLFNFNDYPNGMVTLFNLLVMGNWQVWMESYKDLTGTWWSITYFVSFYVITILLLLNLVVAFVLEAFFTELDLEEEEKCQGQDSQEKRNRRRSAGSKSRSQRVDTAAHHMAGDELSKPECSTSDT
modifications: C-terminal GFP
notes: leucines L714, 715, 719 of TPC1 replaced by alanine
B2 registered a single-channel conductance in experiment [2] (excised cytosolic side-out patch, tpc1-2 cell, linear fit) of 58 pS. The “macroscopic currents in excised patches” value in experiment [2] (excised patches, tpc1-2 cells) is given as “no macroscopic currents were resolved”. The “whole-vacuolar SV currents” value in experiment [1] is “loss of SV currents to a similar extent as TPC1-3LP”.

B3: TPC1-S706D (protein, UniProt Q94KI8 1-733, looked up, variant S706D)
Two pore calcium channel …: MEDPLIGRDSLGGGGTDRVRRSEAITHGTPFQKAAALVDLAEDGIGLPVEILDQSSFGESARYYFIFTRLDLIWSLNYFALLFLNFFEQPLWCEKNPKPSCKDRDYYYLGELPYLTNAESIIYEVITLAILLVHTFFPISYEGSRIFWTSRLNLVKVACVVILFVDVLVDFLYLSPLAFDFLPFRIAPYVRVIIFILSIRELRDTLVLLSGMLGTYLNILALWMLFLLFASWIAFVMFEDTQQGLTVFTSYGATLYQMFILFTTSNNPDVWIPAYKSSRWSSVFFVLYVLIGVYFVTNLILAVVYDSFKEQLAKQVSGMDQMKRRMLEKAFGLIDSDKNGEIDKNQCIKLFEQLTNYRTLPKISKEEFGLIFDELDDTRDFKINKDEFADLCQAIALRFQKEEVPSLFEHFPQIYHSALSQQLRAFVRSPNFGYAISFILIINFIAVVVETTLDIEESSAQKPWQVAEFVFGWIYVLEMALKIYTYGFENYWREGANRFDFLVTWVIVIGETATFITPDENTFFSNGEWIRYLLLARMLRLIRLLMNVQRYRAFIATFITLIPSLMPYLGTIFCVLCIYCSIGVQVFGGLVNAGNKKLFETELAEDDYLLFNFNDYPNGMVTLFNLLVMGNWQVWMESYKDLTGTWWSITYFVSFYVITILLLLNLVVAFVLEAFFTELDLEEEEKCQGQDSQEKRNRRRSAGSKDRSQRVDTLLHHMLGDELSKPECSTSDT
On to B3, for which the “current remaining following reduction of Ca2+ from 1 mM to 200 µM” value in experiment [2] is listed as 24 ± 4%. In addition, the “reduction of whole-vacuolar current amplitude” value in experiment [1] stood at 58%.

B4: TPC1-S706A (protein, UniProt Q94KI8 1-733, looked up, variant S706A)
Two pore calcium channel …: MEDPLIGRDSLGGGGTDRVRRSEAITHGTPFQKAAALVDLAEDGIGLPVEILDQSSFGESARYYFIFTRLDLIWSLNYFALLFLNFFEQPLWCEKNPKPSCKDRDYYYLGELPYLTNAESIIYEVITLAILLVHTFFPISYEGSRIFWTSRLNLVKVACVVILFVDVLVDFLYLSPLAFDFLPFRIAPYVRVIIFILSIRELRDTLVLLSGMLGTYLNILALWMLFLLFASWIAFVMFEDTQQGLTVFTSYGATLYQMFILFTTSNNPDVWIPAYKSSRWSSVFFVLYVLIGVYFVTNLILAVVYDSFKEQLAKQVSGMDQMKRRMLEKAFGLIDSDKNGEIDKNQCIKLFEQLTNYRTLPKISKEEFGLIFDELDDTRDFKINKDEFADLCQAIALRFQKEEVPSLFEHFPQIYHSALSQQLRAFVRSPNFGYAISFILIINFIAVVVETTLDIEESSAQKPWQVAEFVFGWIYVLEMALKIYTYGFENYWREGANRFDFLVTWVIVIGETATFITPDENTFFSNGEWIRYLLLARMLRLIRLLMNVQRYRAFIATFITLIPSLMPYLGTIFCVLCIYCSIGVQVFGGLVNAGNKKLFETELAEDDYLLFNFNDYPNGMVTLFNLLVMGNWQVWMESYKDLTGTWWSITYFVSFYVITILLLLNLVVAFVLEAFFTELDLEEEEKCQGQDSQEKRNRRRSAGSKARSQRVDTLLHHMLGDELSKPECSTSDT
Take B4: the “current remaining following reduction of Ca2+ from 1 mM to 200 µM” value in experiment [2] is recorded as 28 ± 3%. Further, in experiment [1], the “reduction of whole-vacuolar current amplitude” value is listed as 53%.

B5: TPC1ΔC8: truncated TPC1 containing residues 1–725 (protein, UniProt Q94KI8 1-725, looked up, fragment)
chain: MEDPLIGRDSLGGGGTDRVRRSEAITHGTPFQKAAALVDLAEDGIGLPVEILDQSSFGESARYYFIFTRLDLIWSLNYFALLFLNFFEQPLWCEKNPKPSCKDRDYYYLGELPYLTNAESIIYEVITLAILLVHTFFPISYEGSRIFWTSRLNLVKVACVVILFVDVLVDFLYLSPLAFDFLPFRIAPYVRVIIFILSIRELRDTLVLLSGMLGTYLNILALWMLFLLFASWIAFVMFEDTQQGLTVFTSYGATLYQMFILFTTSNNPDVWIPAYKSSRWSSVFFVLYVLIGVYFVTNLILAVVYDSFKEQLAKQVSGMDQMKRRMLEKAFGLIDSDKNGEIDKNQCIKLFEQLTNYRTLPKISKEEFGLIFDELDDTRDFKINKDEFADLCQAIALRFQKEEVPSLFEHFPQIYHSALSQQLRAFVRSPNFGYAISFILIINFIAVVVETTLDIEESSAQKPWQVAEFVFGWIYVLEMALKIYTYGFENYWREGANRFDFLVTWVIVIGETATFITPDENTFFSNGEWIRYLLLARMLRLIRLLMNVQRYRAFIATFITLIPSLMPYLGTIFCVLCIYCSIGVQVFGGLVNAGNKKLFETELAEDDYLLFNFNDYPNGMVTLFNLLVMGNWQVWMESYKDLTGTWWSITYFVSFYVITILLLLNLVVAFVLEAFFTELDLEEEEKCQGQDSQEKRNRRRSAGSKSRSQRVDTLLHHMLGDELSK
modifications: GFP fusion
Consider B5, for which the “subcellular localization of GFP-fusion” value in the experiment with tonoplast is listed as “localized in the tonoplast”. Besides, the “whole-vacuolar SV currents” value in experiment [1] is “wild type like”.

The values above are taken from article PMC4894940, “The function of the two-pore channel TPC1 depends on dimerization of its carboxy-terminal helix” (Cellular and Molecular Life Sciences: CMLS, 2016).
